Earlier results as cited in paper PMC7948954.
Blank lines part the entries; values can stand above or below the substance they belong to.

Assays:
[1] = target: ANAC013 (Arabidopsis thaliana) (UniProt F4IED2)
[2] = target: Col10 (Arabidopsis thaliana) (UniProt Q9LUA9)
[3] = target: ANAC087 (Arabidopsis thaliana) (UniProt Q9FK44)
[4] = target: STO (Arabidopsis thaliana) (UniProt Q96288)
[5] = target: DREB2a (Arabidopsis thaliana) (UniProt O82132)
Mad1 = Mad1 (UniProt Q05195)
Pf1 = Pf1 (UniProt Q96QT6)
SAP30 = SAP30 (UniProt O88574)
Chain of UniProt O88574 (O88574 130-220): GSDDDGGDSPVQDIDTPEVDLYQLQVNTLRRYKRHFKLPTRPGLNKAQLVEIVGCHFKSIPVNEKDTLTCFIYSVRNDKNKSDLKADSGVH

Chain of UniProt F4IED2 (F4IED2 whole entry): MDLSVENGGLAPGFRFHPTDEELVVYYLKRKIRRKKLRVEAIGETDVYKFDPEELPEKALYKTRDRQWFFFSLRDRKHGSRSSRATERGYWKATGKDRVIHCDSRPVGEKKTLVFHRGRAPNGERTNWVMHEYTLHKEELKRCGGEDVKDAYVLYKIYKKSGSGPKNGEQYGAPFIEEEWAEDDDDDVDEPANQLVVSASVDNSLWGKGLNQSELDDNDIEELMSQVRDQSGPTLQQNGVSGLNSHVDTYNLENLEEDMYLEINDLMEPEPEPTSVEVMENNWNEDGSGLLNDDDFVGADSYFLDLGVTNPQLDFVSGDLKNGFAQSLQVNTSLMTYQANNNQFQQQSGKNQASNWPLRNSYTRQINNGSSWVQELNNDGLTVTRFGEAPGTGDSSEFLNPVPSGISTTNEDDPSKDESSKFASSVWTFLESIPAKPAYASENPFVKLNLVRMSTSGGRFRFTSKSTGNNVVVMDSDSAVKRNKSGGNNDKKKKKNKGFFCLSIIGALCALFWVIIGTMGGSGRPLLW
Chain of UniProt Q96QT6 (Q96QT6 202-241): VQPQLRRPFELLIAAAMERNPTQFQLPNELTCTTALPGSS
Chain of UniProt O82132 (O82132 whole entry): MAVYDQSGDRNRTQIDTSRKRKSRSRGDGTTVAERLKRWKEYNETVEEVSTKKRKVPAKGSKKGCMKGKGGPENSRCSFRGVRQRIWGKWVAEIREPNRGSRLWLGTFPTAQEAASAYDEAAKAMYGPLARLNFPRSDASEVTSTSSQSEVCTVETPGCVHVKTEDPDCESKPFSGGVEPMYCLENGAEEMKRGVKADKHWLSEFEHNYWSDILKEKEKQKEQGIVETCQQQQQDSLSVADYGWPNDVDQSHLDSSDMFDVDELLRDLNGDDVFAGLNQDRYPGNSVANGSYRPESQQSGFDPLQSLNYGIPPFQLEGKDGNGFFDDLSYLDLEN
Chain of UniProt Q9LUA9 (Q9LUA9 whole entry): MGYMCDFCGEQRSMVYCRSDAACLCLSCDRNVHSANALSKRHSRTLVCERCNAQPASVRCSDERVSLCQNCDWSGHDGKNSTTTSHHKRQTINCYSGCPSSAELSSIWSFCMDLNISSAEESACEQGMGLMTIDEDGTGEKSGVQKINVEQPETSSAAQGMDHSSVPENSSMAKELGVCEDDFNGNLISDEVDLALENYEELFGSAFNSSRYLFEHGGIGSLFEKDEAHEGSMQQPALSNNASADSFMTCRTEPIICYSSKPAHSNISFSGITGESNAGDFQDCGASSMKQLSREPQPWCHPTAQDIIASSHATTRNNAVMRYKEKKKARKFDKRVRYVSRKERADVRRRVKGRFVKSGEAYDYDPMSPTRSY
Chain of UniProt Q96288 (Q96288 whole entry): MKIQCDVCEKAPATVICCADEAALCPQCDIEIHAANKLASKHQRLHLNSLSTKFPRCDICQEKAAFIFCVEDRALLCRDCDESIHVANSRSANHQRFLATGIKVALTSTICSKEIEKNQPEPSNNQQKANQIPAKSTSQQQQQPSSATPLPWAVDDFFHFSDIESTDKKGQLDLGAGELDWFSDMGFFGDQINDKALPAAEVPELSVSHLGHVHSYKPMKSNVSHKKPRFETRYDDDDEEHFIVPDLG
Chain of UniProt Q05195 (Q05195 5-24): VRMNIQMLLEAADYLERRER
Chain of UniProt Q9FK44 (Q9FK44 whole entry): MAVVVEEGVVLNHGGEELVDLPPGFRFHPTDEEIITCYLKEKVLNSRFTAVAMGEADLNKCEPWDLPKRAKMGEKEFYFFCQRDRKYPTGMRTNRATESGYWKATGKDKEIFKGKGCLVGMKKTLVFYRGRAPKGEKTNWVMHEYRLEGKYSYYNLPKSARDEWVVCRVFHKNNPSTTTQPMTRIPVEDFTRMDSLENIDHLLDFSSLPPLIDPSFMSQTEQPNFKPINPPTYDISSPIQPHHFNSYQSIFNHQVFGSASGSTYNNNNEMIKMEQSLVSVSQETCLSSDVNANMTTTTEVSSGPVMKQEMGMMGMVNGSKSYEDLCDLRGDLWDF

Kd [1]: 9 nM
Kd [2]: 418 nM
Kd [3]: 1800 nM
Kd [4]: 90 nM
Kd [5]: 16 nM
Substance: RCD1 RST (from UniProt Q8RY59)

Kd (Mad1): 50 nM
Kd (Pf1): 2000 nM
Substance: Sin3 PAH2 (from UniProt Q60520)

Kd (SAP30): 9 nM
Substance: Sin3a PAH3 (from UniProt Q60520)
